Experimental data reported in patent publication US20180320194A1 (PURDUE RESEARCH FOUNDATION, published 2018).

How the values were obtained:
ABF2, Q9M7Q4 = biological target: T1, ABF2, Q9M7Q4
T1 chain: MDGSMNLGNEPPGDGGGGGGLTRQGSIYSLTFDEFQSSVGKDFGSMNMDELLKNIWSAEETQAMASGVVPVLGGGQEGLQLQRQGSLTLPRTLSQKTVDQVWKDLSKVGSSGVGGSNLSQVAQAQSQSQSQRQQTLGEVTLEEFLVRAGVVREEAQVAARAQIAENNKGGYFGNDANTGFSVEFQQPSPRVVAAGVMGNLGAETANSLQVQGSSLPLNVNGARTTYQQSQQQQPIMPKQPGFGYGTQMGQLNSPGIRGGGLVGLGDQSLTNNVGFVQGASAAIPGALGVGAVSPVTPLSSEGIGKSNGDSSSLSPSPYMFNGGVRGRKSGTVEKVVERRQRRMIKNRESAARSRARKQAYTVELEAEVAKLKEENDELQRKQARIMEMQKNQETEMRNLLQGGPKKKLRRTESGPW

[1] = biological target: T2, PYL9 fused to the GAL4-DNA-binding domain (BD-PYL9) (Arabidopsis); assay: yeast two-hybrid, growth on media lacking His with and without ABA
T2 construct: Y2H bait; also called pBD-GAL4-PYL9

PP2CA = biological target: T3, PP2CA (Arabidopsis, UniProt P49598 1-399); assay: tandem affinity purification (anti-HA agarose, GFP-Trap) from seedlings, MS identification
T3 construct: Endogenous protein co-purified from seedlings and identified by MS
T3 sequence (looked up): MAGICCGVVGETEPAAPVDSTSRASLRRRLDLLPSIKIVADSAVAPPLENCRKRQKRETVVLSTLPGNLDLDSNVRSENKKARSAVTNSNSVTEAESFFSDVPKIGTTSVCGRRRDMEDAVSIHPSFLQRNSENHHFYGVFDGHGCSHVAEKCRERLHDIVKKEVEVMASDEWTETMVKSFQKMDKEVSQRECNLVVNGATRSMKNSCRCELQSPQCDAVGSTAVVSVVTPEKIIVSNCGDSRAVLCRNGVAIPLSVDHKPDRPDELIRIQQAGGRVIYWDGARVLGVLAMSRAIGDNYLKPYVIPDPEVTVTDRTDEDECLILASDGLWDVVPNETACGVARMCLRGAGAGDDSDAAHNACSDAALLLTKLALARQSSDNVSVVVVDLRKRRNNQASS
Description: (§1) Ten-day-old seedlings of the transgenic Arabidopsis plants expressing ProPYL9:PYL9-HA-YFP (FIG. 12A) were used for tandem affinity purification. Seedlings (3-4 g fresh weight) were treated for 1 h with ½ Murashige and Skoog medium containing 100 μM ABA or 30 min with ½ Murashige and Skoog medium containing 0.8 M mannitol; for the control, seedlings were treated with ½ Murashige and Skoog medium for 1 h. After treatment, samples were quickly frozen, ground in liquid N₂, homogenized in an equal volume of 2× immunoprecipitation (IP) buffer (100 mM Tris.HCl, pH 7.5, 300 mM NaCl, 2 mM EDTA, 0.2% Nonidet P-40, 2× protease mixture; Roche), and then, centrifuged at 30,000×g for 30 min at 4° C. The supernatant was passed through a 0.2-μM filter and centrifuged again at 30,000×g for 30 min at 4° C. After that, the supernatant was incubated with 40 μL 50% (vol/vol) slurry of monoclonal anti-HA agarose with antibody produced in mouse (A2095; Sigma), which was prebalanced with 1×IP buffer. The mixture was inverted for 1 h at 4° C. on a shaker. The agarose was then washed four times with 1×IP buffer, three times with high NaCl buffer (50 mM Tris.HCl, pH 7.5, 500 mM NaCl, 1 mM EDTA), and finally, three times with 1×IP buffer. The protein that had bound to the anti-HA agarose was eluted by HA peptide (ab13835; Abcam) with a concentration of […] in 200 μL 1×IP buffer overnight at 4° C. […]

ABA-insensitive 1 (ABI1) = biological target: T4, ABA-insensitive 1 (ABI1) (Arabidopsis, UniProt P49597 1-434); assay: as above
T4 construct: Endogenous protein in the TAP-MS experiment
T4 sequence (looked up): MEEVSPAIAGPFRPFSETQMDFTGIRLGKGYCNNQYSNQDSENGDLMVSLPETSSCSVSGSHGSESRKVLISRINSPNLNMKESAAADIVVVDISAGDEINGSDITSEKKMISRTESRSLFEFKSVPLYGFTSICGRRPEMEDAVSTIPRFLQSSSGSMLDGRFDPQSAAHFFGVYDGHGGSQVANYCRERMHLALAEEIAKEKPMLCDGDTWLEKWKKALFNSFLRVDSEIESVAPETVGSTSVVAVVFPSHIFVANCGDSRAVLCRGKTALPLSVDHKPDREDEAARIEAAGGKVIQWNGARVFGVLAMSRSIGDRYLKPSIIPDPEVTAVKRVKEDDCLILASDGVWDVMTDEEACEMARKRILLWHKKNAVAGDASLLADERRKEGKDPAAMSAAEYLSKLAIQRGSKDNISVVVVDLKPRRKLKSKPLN
Description: as §1

B1: SnRK2.6 (protein)
chain: MDRPAVSGPMDLPIMHDSDRYELVKDIGSGNFGVARLMRDKQSNELVAVKYIERGEKIDENVKREIINHRSLRHPNIVRFKEVILTPTHLAIVMEYASGGELFERICNAGRFSEDEARFFFQQLISGVSYCHAMQVCHRDLKLENTLLDGSPAPRLKICDFGYSKSSVLHSQPKSTVGTPAYIAPEVLLKKEYDGKVADVWSCGVTLYVMLVGAYPFEDPEEPKNFRKTIHRILNVQYAIPDYVHISPECRHLISRIFVADPAKRISIPEIRNHEWFLKNLPADLMNDNTMTTQFDESDQPGQSIEEIMQIIAEATVPPAGTQNLNHYLTGSLDIDDDMEEDLESDLDDLDIDSSGEIVYAM
**Q.** B1 was tested. Which “SAG12-LUC expression in protoplasts” value (ABF2, Q9M7Q4) did it give?
**A.** Expression of SnRK2.6 significantly enhanced the ability of ABF2 to increase SAG12-LUC expression in the presence of ABA

B2: activating domain (AD) alone (other, UniProt P04386 768-881, looked up)
chain: ANFNQSGNIADSSLSFTFTNSSNGPNLITTQTNSQALSQPIASSNVHDNFMNNEITASKIDDGNNSKPLSPGWTDQTAYNAFGITTGMFNTTTMDDVYNYLFDDEDTPPNPKKE
notes: Negative control prey in the Y2H assay
**Q.** Does B2 bind [1]?
**A.** no binding

B3: HA- and YFP-tagged PYL9 (PYL9-HA-YFP) (receptor)
chain: MMDGVEGGTAMYGGLETVQYVRTHHQHLCRENQCTSALVKHIKAPLHLVWSLVRRFDQPQKYKPFVSRCTVIGDPEIGSLREVNVKSGLPATTSTERLELLDDEEHILGIKIIGGDHRLKNYSSILTVHPEIIEGRAGTMVIESFVVDVPQGNTKDETCYFVEALIRCNLKSLADVSERLASQDITQ
notes: Expressed under the native PYL9 promoter in transgenic Arabidopsis seedlings; also called ProPYL9:PYL9-HA-YFP; not shown: 3HA tag at the C terminus; YFP tag at the C terminus
**Q.** Does B3 bind (PP2CA)?
**A.** binds

**Q.** Does B3 bind (ABA-insensitive 1 (ABI1))?
**A.** binds
